In patent US20220273713A1, “METHOD OF INHIBITING OR ACTIVATING GAMMA DELTA T CELLS” (The University of Melbourne, priority 2019, published 2022):
Where “and” joins values, the source holds several entries; their conditions need not be identical. Identical values can stand only once. Entries after “also recorded” stand apart in the source; their conditions may differ.

Experiments:
[1] = tested on: Vγ9Vδ2 cells; assay: Flow cytometry: CD25 on Vγ9Vδ2 cells without phosphoantigen or APCs; format: cell-based, human; details: no addition of APCs or phosphoantigen; listed as 259
Description: Vγ9Vδ2 cells were stained for CD3, Vδ2, CD25 and live dead viability dye as previously described and analysed on a Canto flow cytometer (BD). Cells were gated on lymphocytes, single cells, live cells, CD3+ Vδ2+, and activation determined based on CD25 expression.

[2] = tested on: LM-MEL-62 melanoma cells; assay: In vitro killing assays (antibody titration, E:T titration), MTS; format: cell-based, human
Protocol: Vγ9Vδ2 cells were isolated from either healthy donor (Red Cross Australia) or cancer patient derived PBMC using TCRγ/δ+ T Cell Isolation Kit (Miltenyi). Patients provided informed consent and research was approved under HREC 14/425. […] For all assays LM-MEL-62 melanoma cells were plated out at 10,000 cells/well in 100 μl RF10 media in 96-well flat bottomed plates and left to adhere overnight at 37 degrees C. and 5% CO2. […] Cells were incubated at 37 degrees C. and 5% CO2. At day 3 Vγ9Vδ2 cells were washed out and 100 μl MTS reagent was added to wells for 1 hour as per manufacturers protocol (Promega, USA). Plates were subsequently read at 490 nm using a Spectrostar Nano microplate reader (BMG Labtech) to determine cell viability corrected for background absorbance.

[3] = tested on: PBMCs; assay: Luminex (PBMCs): cytokine/chemokine expression in freshly isolated PBMCs; format: cell-based, human
Protocol: Blood from a healthy donor (Red Cross Australia) was ficolled, PBMC layer collected, washed and 5×10^5 cells were treated with the indicated antibodies in duplicates @ 10 μg/ml in 500 ul TCRPMI supplemented with 100u/ml IL-2 and incubated at 37 degrees C. and 5% CO2 for 16 hrs. Supernatants were collected and submitted for Luminex Human 20-plex Inflammation panel analysis (EPX200-12185-901) to Crux Biolabs (Scoresby, VIC, Australia). This measures the following analytes: GM-CSF; ICAM-1, IFN-α; IFN-g, IL-1α, IL-1b, IL-10, IL-12p70, IL-13, IL-17A, IL-4, IL-8, IP-10, MCP-1, IL-6, MIP-1α, MIP-1b, sE-selectin, sP-Selectin, TNF-α. All samples were run with appropriate controls and standards. Treatment with antibody 259 was only performed in one well.

[4] = tested on: Vγ9Vδ2 cells; assay: Luminex (Vγ9Vδ2): cytokine/chemokine secretion by pre-expanded Vγ9Vδ2 cells; format: cell-based, human; details: for IL-4 / IL-8 / GMCSF / ICAM-1 / IFNγ / IL-13 / IL-17A / MIP-1a / MIP-1b / TNFα / sE-selectin / sP-Selectin: 16 hrs, antibodies 10 μg/ml, Zoledronic acid 4 μM, HMBPP 0.5 ng/ml, duplicates, 0 set to 0.1;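 as to all read-outs here: Vγ9Vδ2 cells purified from PBMC, activated 48 h with CD3 and CD28 plus IL-2, expanded 14 days in IL-2, then thawed and rested overnight in IL-2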
Protocol: Briefly, Vγ9Vδ2 cells were isolated from 1 healthy donor (Red Cross Australia) and 1 cancer patient derived PBMC using TCRγ/δ+ T Cell Isolation Kit (Miltenyi). Cells were stimulated for 48 hours in TCRPMI supplemented with 100u/ml IL-2, CD3 (10 μg/ml) and CD28 (1 μg/ml). Cells were washed and grown for 14 days in TCRPMI supplemented with 100u/ml IL-2 at 37 degrees C. and 5% CO2, and then frozen down. […] Vγ9Vδ2 were defrosted and rested overnight in TCRPMI supplemented with 50u/ml IL-2 at 37 degrees C. and 5% CO2. […] All samples were run with appropriate controls and standards.

[5] = biological target: T1, BTN2A2 (Homo sapiens, UniProt Q8WVV5); assay: Cross-reactivity of anti-BTN2A1 mAb to BTN2A2 (ELISA, transfected cells); format: binding
T1 sequence (Q8WVV5 33-265 limits assumed): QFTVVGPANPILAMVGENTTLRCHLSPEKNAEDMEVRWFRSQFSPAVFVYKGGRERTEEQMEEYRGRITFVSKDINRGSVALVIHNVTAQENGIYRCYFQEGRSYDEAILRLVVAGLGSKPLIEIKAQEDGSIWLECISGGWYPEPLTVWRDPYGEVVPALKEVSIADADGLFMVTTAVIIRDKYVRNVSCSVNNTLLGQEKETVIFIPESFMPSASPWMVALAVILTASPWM
Protocol: Purified recombinant proteins (0.2-20 μg/ml) were immobilized in microplate wells in PBS buffer overnight at 4° C. Non-specific binding was then blocked by incubation in PBS containing 0.05% tween 20 plus 5% skim milk powder or 0.5% (w/v) bovine serum albumin (BSA). The wells were then incubated for 60 minutes at room temperature in the presence of antibodies at 2-5 μg/mL in PBS/0.05% tween-20/2% skim milk powder or 0.5% BSA, followed by washing in PBS/0.05% tween-20. Plates were then incubated with HRP-labelled sheep anti-mouse IgG secondary antibody (Chemicon), or goat anti-mouse IgG secondary antibody (Millipore) followed by detection using 3,3′,5,5′-tetramethylbenzidine substrate (Sigma) and absorbance was measured at 450 nm using a plate reader.

[6] = PBMCs from a healthy donor, antibodies 10 μg/ml, 16 hrs, duplicates, 259 one well
[7] = γδT cells from a healthy donor, listed as 259
[8] = γδT cells from patient 1 (melanoma patient), listed as 259

cross-reactivity to BTN2A2 [5]: not cross-reactive
B1: antibody 259: agonistic anti-BTN2A1 antibody; VL SEQ ID NO: 156, VH SEQ ID NO: 160 (antibody, V domains shown)
VH: EVQLLESGGGLVQPGGSLRLSCAASGFTFSSYAMQWVRQAPGKGLEWVSRIGPSGGGTMYADSVKGRFTISRDNSKNTLYLQMNSLRAEDMAVYYCARDLGGLSVLFDYWGQGTLVTVSS
VL: QSELTQPPSASETPGQRVTISCSGSSSNIGSNTVSWFQQLPGSAPRLLIYNDHRRPSGVPDRFSGSKSGTSASLVISGLQSQDEADYYCSAWDDSLNGVVFGGGTKLTVL
modifications: amino acid sequence of the VH of antibody 259; amino acid sequence of the VL of antibody 259
activation of Vγ9Vδ2 cells by CD25 upregulation [1]: higher activation potential; also recorded: can mimic phosphoantigen mediated activation to various degrees
tumour cell killing compared to treatment with zoledronic acid ([2]; E:T titration 2:1 to 1:16, 10 ug/ml antibody 259 or 4 uM zoledronate, both donors): killing occurred to a lesser extent
induction of LM-MEL-62 cell killing, 259 compared with 253 ([2]; LM-MEL-62 with Vγ9Vδ2 cells 1:1, antibody titration, listed as 259): more potent inducer of cell killing than antibody 253; also recorded: lower viability rates of LM-MEL-62 cells when compared to antibody 253
ICAM-1 [3, 6]: 1578.36 pg/mL
IFNγ [3, 6]: 104.96 pg/mL
IL-1α [3, 6]: 8.7 pg/mL
IL-1β [3, 6]: 5.19 pg/mL
IL-6 [3, 6]: 462.59 pg/mL
IL-8 [3, 6]: 495.89 pg/mL
IL-10 [3, 6]: 49.99 pg/mL
IL-17A [3, 6]: 24.59 pg/mL
IP-10 [3, 6]: 641.08 pg/mL
MCP-1 [3, 6]: 1023.7 pg/mL
MIP-1α [3, 6]: 131.71 pg/mL
MIP-1β [3, 6]: 584.34 pg/mL
sE-selectin [3, 6]: 327.64 pg/mL
TNFα levels ([3]; full PBMC): no increase
IL-8 (CXCL8), CCL2 (MCP-1) and IL-6 ([3]; full PBMC, vs isotype): up-regulated
expression of IFNγ and sE-Selectin ([3]; full PBMC, vs isotype): increased expression
cytokine/chemokine secretion, in words ([4]; across both donors): substantial increase in multiple analytes
cytokine/chemokine secretion, in words ([4]; healthy donor derived Vγ9Vδ2 cells, vs isotype (BM4)): no IL-4 was detected
IL-4 ([4]; γδT cells from a healthy donor): 0.1 pg/mL
IL-8 ([4]; γδT cells from a healthy donor): 0.1 pg/mL
GMCSF [4, 7]: 578.23 pg/mL and 608.66 pg/mL
ICAM-1 [4, 7]: 227.66 pg/mL and 226.25 pg/mL
IFNγ [4, 7]: 359.53 pg/mL and 412.2 pg/mL
IL-13 [4, 7]: 23.33 pg/mL and 31.31 pg/mL
IL-17A [4, 7]: 3.7 pg/mL and 4.17 pg/mL
MIP-1a [4, 7]: 301.77 pg/mL and 286.07 pg/mL
MIP-1b [4, 7]: 9757.6 pg/mL and 9064.66 pg/mL
TNFα [4, 7]: 451.81 pg/mL and 481.49 pg/mL
sE-selectin [4, 7]: 259.93 pg/mL and 300.24 pg/mL
sP-Selectin [4, 7]: 2291.35 pg/mL and 2223.07 pg/mL
GMCSF [4, 8]: 1135.87 pg/mL and 1151.41 pg/mL
ICAM-1 [4, 8]: 798.07 pg/mL and 755.13 pg/mL
IFNγ [4, 8]: 598.1 pg/mL and 740.33 pg/mL
IL-4 [4, 8]: 490.79 pg/mL and 389.47 pg/mL
IL-8 [4, 8]: 0.93 pg/mL and 1.06 pg/mL
IL-13 [4, 8]: 399.99 pg/mL and 461.27 pg/mL
IL-17A [4, 8]: 5.86 pg/mL and 6.55 pg/mL
MIP-1a [4, 8]: 317.76 pg/mL and 361.32 pg/mL
MIP-1b [4, 8]: 6921.27 pg/mL and 8238.42 pg/mL
TNFα [4, 8]: 1130.35 pg/mL and 1137.89 pg/mL
sE-selectin [4, 8]: 311.65 pg/mL and 368.09 pg/mL
sP-Selectin [4, 8]: 2170.46 pg/mL and 2424.08 pg/mL
